Measurements from article PMC6238531, “The ER morphology-regulating lunapark protein induces the formation of stacked bilayer discs” (Life Science Alliance, 2018).

Target: T1, SBP-tagged full-length human Lnp (human, UniProt Q9C0E8 1-428)
T1 construct: lunapark (Lnp), human, full length; a tobacco etch virus protease cut site stands between Lnp and the SBP tag; Membrane protein with two TM segments, kept in 0.05% Triton X-100 in the pull-down; also called lunapark; SBP-tagged human Lnp; source: S. cerevisiae (pRS425, GAL1 promoter), purified in Triton X-100 (streptavidin resin, biotin elution, SEC on Superose 6); not shown: SBP, C-terminal, kept
T1 sequence (looked up): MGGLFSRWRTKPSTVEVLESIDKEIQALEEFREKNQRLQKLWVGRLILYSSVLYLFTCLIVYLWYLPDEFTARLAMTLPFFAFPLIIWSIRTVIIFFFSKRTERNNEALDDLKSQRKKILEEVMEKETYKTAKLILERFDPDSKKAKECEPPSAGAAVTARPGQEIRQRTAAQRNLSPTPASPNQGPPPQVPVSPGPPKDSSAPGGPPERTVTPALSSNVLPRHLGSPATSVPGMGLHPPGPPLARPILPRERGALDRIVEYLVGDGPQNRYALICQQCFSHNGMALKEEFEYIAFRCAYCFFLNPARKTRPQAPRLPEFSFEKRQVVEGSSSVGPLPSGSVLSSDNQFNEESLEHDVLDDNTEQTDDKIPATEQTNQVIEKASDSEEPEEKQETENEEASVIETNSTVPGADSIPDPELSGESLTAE
Assay: pull-down; SBP-tagged human Lnp mixed with His10-tagged Lnp (molar ratio 1:3 or 1:5), 1 h at 4°C in 20 mM Hepes pH 7.5, 100 mM KCl, 1 mM dithiothreitol, 0.05% Triton X-100; held on streptavidin resin, washed, eluted with 2 mM biotin; SDS-PAGE and Coomassie blue staining
Conditions: both partners purified

B1: His10-tagged full-length human Lnp (natural protein, UniProt Q9C0E8 1-428, looked up)
chain: T1 sequence (looked up)
notes: lunapark (Lnp), human, full length, cloned into pET21b; also called lunapark; source: E. coli BL21-CodonPlus (DE3)-RIPL, purified in Triton X-100 (Ni-NTA, SEC on Superose 6); not shown: His10, C-terminal, kept
  binding result: binds
